# In the Human Domainome abundance scans (Beltran et al. 2025):
# ± gives the uncertainty stated by the source.
# B1: Neutrophil cytosol factor 2, residues 456 to 514; numbered along this chain, P19878 (parent)
# chain: LKKGSQVEALFSYEATQPEDLEFQEGDIILVLSKVNEEWLEGECKGKVGIFPKVFVEDC
# Variants of: B1
# Assay: abundance fitness (aPCA) (normalised: wild type 0, dead -1); higher = more abundant; growth selection in yeast, the domain comes from the species named
# Conditions: Homo sapiens
row,Variant,abundance fitness
1,D20N,-0.703 ± 0.16
2,D20V,-0.578 ± 0.13
3,D20P,-0.162 ± 0.15
4,Q6A,-0.717 ± 0.27
5,E41L,0.275 ± 0.083
6,E41R,0.131 ± 0.083
7,G4R,-0.535 ± 0.27
8,L32P,-0.146 ± 0.15
9,L32I,-0.06 ± 0.11
10,L32Y,-0.249 ± 0.13
11,W39R,-0.893 ± 0.16
12,W39L,-0.8 ± 0.14
13,K45R,0.012 ± 0.11
14,K45W,-0.125 ± 0.25
15,K45N,0.203 ± 0.096
16,E38A,-0.329 ± 0.13
17,S33C,-0.474 ± 0.13
18,S5Y,0.219 ± 0.19
19,S5F,0.011 ± 0.13
20,S5T,-0.037 ± 0.23
21,S5K,0.309 ± 0.23

row,Variant,abundance fitness
1,S12C,-0.595 ± 0.17
2,P18Q,-0.83 ± 0.45
3,P18S,-0.587 ± 0.11
4,L30K,0.491 ± 0.17
5,L30T,1.05 ± 0.089
6,L30I,0.032 ± 0.1
7,L30H,0.448 ± 0.12
8,E25V,-0.043 ± 0.078
9,G46S,-0.928 ± 0.18
10,E14I,-0.304 ± 0.13
11,E14L,-0.231 ± 0.14
12,E14Q,0.068 ± 0.33
13,E8G,-0.093 ± 0.28
14,E8N,0.524 ± 0.31
15,V48C,-0.392 ± 0.16
16,A9L,-0.471 ± 0.17
17,F51E,0.113 ± 0.19
18,Q17E,-0.504 ± 0.3
19,Q17A,0.324 ± 0.088
20,C44A,-0.241 ± 0.13
21,V31N,-0.092 ± 0.092

row,Variant,abundance fitness
1,V31R,-0.581 ± 0.16
2,V31I,0.342 ± 0.077
3,L40V,-0.451 ± 0.12
4,V54Q,0.298 ± 0.15
5,V54L,-0.434 ± 0.13
6,V54R,0.625 ± 0.082
7,G49F,-0.469 ± 0.11
8,G49M,-0.075 ± 0.22
9,V7M,-0.99 ± 0.5
10,V7P,-0.506 ± 0.27
11,V7G,-0.67 ± 0.27
12,D58C,0.313 ± 0.09
13,D58I,-0.268 ± 0.17
14,F23K,-0.048 ± 0.32
15,F11Y,-0.191 ± 0.24
16,F11K,0.153 ± 0.2
17,F11L,-0.314 ± 0.15
18,D27P,-0.783 ± 0.33
19,L1K,-0.529 ± 0.49
20,L10R,0.046 ± 0.17
21,V35W,-0.019 ± 0.16

row,Variant,abundance fitness
1,I50D,-0.306 ± 0.16
2,I50F,-0.389 ± 0.14
3,I50A,-0.213 ± 0.17
4,E57F,-0.607 ± 0.18
5,E57C,-0.15 ± 0.18
6,E19G,0.598 ± 0.071
7,K47E,-0.822 ± 0.42
8,Q24V,-0.279 ± 0.11
9,Q24P,-0.727 ± 0.4
10,E37N,0.241 ± 0.13
11,F55L,0.207 ± 0.11
12,G26N,-0.517 ± 0.23
13,G26H,-0.398 ± 0.27
14,G26M,-0.103 ± 0.25
15,I29H,-0.595 ± 0.17
16,I29M,-0.686 ± 0.26
17,G42M,-0.954 ± 0.31
18,L21G,-0.369 ± 0.094
